Reference: patent US20160310575A1

Assays:
Assay in all cases: cell-based or functional assay
human GCG-R (human) = human GCG-R (human) (UniProt P47871)
human GLP-R (human) = human GLP-R (human) (UniProt P43220)
human GIP-R (human) = human GIP-R (human) (UniProt P48546)
human GIP-R (human), sequence (P48546 22-466): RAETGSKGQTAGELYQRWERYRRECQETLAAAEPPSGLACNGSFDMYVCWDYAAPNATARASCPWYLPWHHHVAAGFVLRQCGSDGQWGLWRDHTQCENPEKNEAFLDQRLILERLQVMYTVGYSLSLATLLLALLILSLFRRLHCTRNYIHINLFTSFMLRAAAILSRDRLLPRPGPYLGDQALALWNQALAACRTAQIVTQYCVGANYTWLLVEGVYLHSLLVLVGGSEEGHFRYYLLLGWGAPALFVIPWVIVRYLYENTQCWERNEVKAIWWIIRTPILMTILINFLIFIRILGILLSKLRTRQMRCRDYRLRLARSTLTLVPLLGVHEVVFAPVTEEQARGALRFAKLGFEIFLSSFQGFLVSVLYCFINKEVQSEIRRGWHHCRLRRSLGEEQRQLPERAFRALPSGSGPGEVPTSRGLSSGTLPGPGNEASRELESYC

Dulaglutide (Fc fusion), sequence (chain): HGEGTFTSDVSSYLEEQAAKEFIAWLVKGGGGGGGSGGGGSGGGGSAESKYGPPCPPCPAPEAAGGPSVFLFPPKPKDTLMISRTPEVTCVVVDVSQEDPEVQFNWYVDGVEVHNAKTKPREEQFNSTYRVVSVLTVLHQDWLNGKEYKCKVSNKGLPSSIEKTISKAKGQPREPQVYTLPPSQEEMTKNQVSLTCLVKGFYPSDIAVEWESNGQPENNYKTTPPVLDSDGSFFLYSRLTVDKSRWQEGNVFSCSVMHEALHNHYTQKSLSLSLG
human GLP-R (human), sequence (P43220 24-463): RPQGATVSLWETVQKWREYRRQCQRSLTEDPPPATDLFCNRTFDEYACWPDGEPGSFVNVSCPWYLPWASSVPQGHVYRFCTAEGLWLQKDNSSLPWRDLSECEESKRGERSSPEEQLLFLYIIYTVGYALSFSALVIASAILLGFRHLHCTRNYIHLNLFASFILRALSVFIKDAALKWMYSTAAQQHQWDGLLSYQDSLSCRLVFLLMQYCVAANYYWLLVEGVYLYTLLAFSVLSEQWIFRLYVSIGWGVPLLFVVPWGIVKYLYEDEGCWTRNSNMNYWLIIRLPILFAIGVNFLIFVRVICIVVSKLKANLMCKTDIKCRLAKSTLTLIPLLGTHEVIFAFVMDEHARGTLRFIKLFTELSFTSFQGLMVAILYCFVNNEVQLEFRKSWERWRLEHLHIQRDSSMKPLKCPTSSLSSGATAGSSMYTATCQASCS
human GCG-R (human), sequence (P47871 26-477): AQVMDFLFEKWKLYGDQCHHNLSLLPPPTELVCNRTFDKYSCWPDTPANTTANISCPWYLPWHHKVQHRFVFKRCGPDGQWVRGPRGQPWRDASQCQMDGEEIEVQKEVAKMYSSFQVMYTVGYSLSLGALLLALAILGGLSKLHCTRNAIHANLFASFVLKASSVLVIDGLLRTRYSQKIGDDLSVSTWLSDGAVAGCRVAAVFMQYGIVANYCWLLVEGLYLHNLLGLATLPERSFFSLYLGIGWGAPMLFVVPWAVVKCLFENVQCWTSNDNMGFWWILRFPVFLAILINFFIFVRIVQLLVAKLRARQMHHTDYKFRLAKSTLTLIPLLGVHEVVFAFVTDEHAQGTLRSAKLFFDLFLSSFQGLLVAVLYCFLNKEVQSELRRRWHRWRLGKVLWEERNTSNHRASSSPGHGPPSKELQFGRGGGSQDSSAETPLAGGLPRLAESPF

% max GCG, human GCG-R (cAMP assay) (human GCG-R (human)) [%] | EC50 [nM], human GCG-R (cAMP assay) (human GCG-R (human)) [nM] | % max GLP-1, human GLP-R (cAMP assay) (human GLP-R (human)) [%] | EC50 [nM], human GLP-R (cAMP assay) (human GLP-R (human)) [nM] | % max GIP, human GIP-R (cAMP assay) (human GIP-R (human)) [%] | EC50 [nM], human GIP-R (cAMP assay) (human GIP-R (human)) [nM] | EC50 [nM], GLP1-R (cAMP assay) (human GLP-R (human)) [nM] | EC50 [nM], GIP-R (cAMP assay) (human GIP-R (human)) [nM] | Substance
1.6 | > 600 | 98.2 | 0.129 | 13.8 | > 600 |  |  | Dulaglutide (Fc fusion)
 |  |  |  |  |  | > 600 | > 600 | G3Fc only (from UniProt P0DOX5 223-449)
